This is an account of results in patent US20250025549A1.

Test [1] addresses dipeptidyl peptidase IV (DPP4), the MERS-CoV receptor, His-tagged (human) (UniProt P27487). Put plainly: ELISA, spike coated, His-tagged hDPP4 titrated.
Test [2] shares this target.

dipeptidyl peptidase IV (DPP4), the MERS-CoV receptor, His-tagged (human), sequence (P27487 29-766 limits assumed): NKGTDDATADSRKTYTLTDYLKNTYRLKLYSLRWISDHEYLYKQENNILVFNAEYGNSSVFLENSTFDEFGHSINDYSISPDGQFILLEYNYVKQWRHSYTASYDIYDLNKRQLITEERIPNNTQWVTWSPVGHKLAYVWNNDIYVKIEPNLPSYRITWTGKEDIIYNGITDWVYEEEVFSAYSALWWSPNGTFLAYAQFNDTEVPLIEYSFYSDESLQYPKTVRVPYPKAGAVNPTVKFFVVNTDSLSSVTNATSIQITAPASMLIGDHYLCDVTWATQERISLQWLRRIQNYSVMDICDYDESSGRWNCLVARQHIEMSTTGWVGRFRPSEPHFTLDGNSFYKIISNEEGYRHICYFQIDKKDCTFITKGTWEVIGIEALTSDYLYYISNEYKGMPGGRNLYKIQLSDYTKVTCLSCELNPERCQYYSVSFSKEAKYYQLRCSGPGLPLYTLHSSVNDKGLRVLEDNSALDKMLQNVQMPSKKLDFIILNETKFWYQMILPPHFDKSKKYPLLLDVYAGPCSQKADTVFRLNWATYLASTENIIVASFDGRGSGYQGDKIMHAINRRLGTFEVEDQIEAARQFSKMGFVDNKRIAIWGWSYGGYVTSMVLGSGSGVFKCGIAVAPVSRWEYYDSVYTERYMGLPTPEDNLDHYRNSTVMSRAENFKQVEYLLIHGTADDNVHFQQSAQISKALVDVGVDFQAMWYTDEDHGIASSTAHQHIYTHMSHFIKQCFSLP

Substance “BV2373 CoV S polypeptide (SEQ ID NO: 87) (from UniProt P0DTC2 14-1273) (other; other documents disagree on this pair)” had an EC50 in test [1] of over 5 µg/mL. In test [2], this substance showed an IC50 of over 5 µg/mL.
